We go through two molecules from US20190185550A1 (HEFEI LIFEON PHARMACEUTICAL, published 2019).

In assay [1] the target is T1, recombinant ED-B domain of human fibronectin with six histidine tags at the carboxyl terminal (human, UniProt P02751 1266-1356).
T1 construct: domain: ED-B; also called ED-B antigen; independent ED-B domain
The assay can be described thus: SPR, BIAcore3000, ED-B amine-coupled on the chip. (Surface plasmon resonance follows binding to a sensor surface in real time, without labels.)

Assay [2] deals with T1, recombinant ED-B domain of human …. The assay can be described thus: ELISA, Scatchard assay method (Beatty), coated ED-B. As to the method: The Scatchard assay method (Beatty, Beatty et al. 1987) is used for the affinity determination. 0.1 μg/μl ED-B antigen is diluted according to four concentration gradients of 1:1, 1:2, 1:4 and 1:8, enveloped in the ELISA plate, stored overnight at 4° C., and then blocked with 4% skimmed milk. The single-chain antibody diluted according to the concentration gradient of 1:3 is added with the original concentration of the antibody being 10 μg/ml. The antibody reacts under a room temperature for 1 hr, then reacts for 1 hr under the addition of a horseradish peroxidase-labeled rabbit-anti-human IgG antibody, and is stained by adding tetramethyl benzidine (TMB). When an appropriate color depth is reached, the staining is terminated by using 2M H₂SO₄, and the OD450 optical absorption value is determined.
In general terms: ELISA stands for enzyme-linked immunosorbent assay.

In assay [3] the target is FN(789), recombinant fibronectin fragment of domains 7, 8 and 9 without the ED-B domain, with 6xHis tags (human, UniProt P02751-1 1173-1446, limits assumed). The experiment in a line: ELISA on coated antigen, antibody B5 as primary antibody, HRP-labeled rabbit anti-human IgG as secondary antibody, OD450. The procedure: The plasmid is expressed in E. coli and then purified through a Ni-chelating column. The aforementioned three proteins are used as antigens and are blocked with milk. Then an ELISA detection test is conducted by using the antibody B5 as a primary antibody and using the horseradish peroxidase-labeled rabbit-anti-human IgG antibody as the secondary antibody, with the test results being shown in FIG. 2.
Chain of FN(789), recombinant fibronectin fragment of domains 7, 8 and 9 without the ED-B domain, with 6xHis tags (P02751 other isoform, or with tags, fused parts or gaps limits assumed): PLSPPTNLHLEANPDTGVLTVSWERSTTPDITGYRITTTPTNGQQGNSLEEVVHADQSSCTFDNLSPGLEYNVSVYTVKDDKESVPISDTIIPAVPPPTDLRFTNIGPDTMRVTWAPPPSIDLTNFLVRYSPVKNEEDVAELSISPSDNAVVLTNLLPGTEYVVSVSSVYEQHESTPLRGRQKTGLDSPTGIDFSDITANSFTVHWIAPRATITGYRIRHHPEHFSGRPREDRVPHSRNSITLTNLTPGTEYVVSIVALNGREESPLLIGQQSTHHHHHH

T1 sequence (P02751 other isoform, or with tags, fused parts or gaps limits assumed): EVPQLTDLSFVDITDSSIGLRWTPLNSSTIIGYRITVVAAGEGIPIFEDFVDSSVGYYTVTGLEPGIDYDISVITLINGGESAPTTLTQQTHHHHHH

B1: antibody L19 (antibody, V domains shown)
VH: EVQLLESGGGLVQPGGSLRLSCAASGFTFSSFSMSWVRQAPGKGLEWVSSISGSSGTTYYADSVKGRFTISRDNSKNTLYLQMNSLRAEDTAVYYCAKPFPYFDYWGQGTLVTVSS
VL: EIVLTQSPGTLSLSPGERATLSCRASQSVSSSYLAWYQQKPGQAPRLLIYYASSRATGIPDRFSGSGSGTDFTLTISRLEPEDFAVYYCQQTGRIPPTFGQGTKVEIK
On to B1, for which the Kd (commonly the equilibrium constant for the complex coming apart) in assay [1] came out at 0.4 nM; in assay [2], 6 nM.

B2: antibody B5 (humanized single-chain antibody against the ED-B domain, expressed as a fusion with the Fc of human IgG1) (Fc fusion)
scFv: EVQLLESGGGLVQPGGSLRLSCAASGFTFSSYAMSWVRQAPGKGLEWVSRISPSGSSTYYADSVKGRFTISRDNSKNTLYLQMNSLRAEDTAVYYCARHTAPLFDYWGQGTLVTVSSGGGGSGGGGSGGGGSSEIVLTQSPGTLSLSPGERATLSCRASQSVSSSYLAWYQQKPGQAPRLLIYKASNLATGIPDRFSGSGSGTDFTLTISRLEPEDFAVYYCQQGRHTPPTFGQGTKVEIK
notes: also called B5-IgG1Fc; single-chain antibody B5; not shown: Fc fragment of the constant region of human IgG1, fused in frame after the scFv (pCI-neo vector); limits and junction no
In the case of B2, in assay [3], the binding result is on record as “no binding”. For the same molecule, the Kd in assay [2] came out at 1.8 nM.
